Data as given in patent US20080009438A9, “Screening methods for compounds useful in the regulation of body weight” (Millennium Pharmaceuticals, Inc., priority 1996, published 2008).

B1: agouti protein: gene product expressed in mice, involved in coat color and obesity when ectopically expressed; antagonizes melanocortin receptors (protein)
chain: HLALEETLGDDRSLRSNSSMNSLDFSSVSIVALNKKSKKISRKEAEKRKRSSKKKASMKKVARPPPPSPCVATRDSCKPPAPACCDPCASCQCRFFGSACTCRVLNPNC

Assays:
hMC1-r [1] = molecular target: T1, hMC1-r (Homo sapiens, UniProt Q01726); assay: Scatchard Analysis on MC1-r transfected COS7 cells with AP-Ag; type: binding; details: culture supernatant containing up to 30 nM AP-Ag, estimated
T1 construct: expressed in transfected cells; host or cells: COS-7 cells, transient (DEAE-Dextran)
Protocol: (§1) COS-7 cells were transfected with hMC1-r or hMC4-r by the DEAE-Dextran method. A plasmid containing the Adenovirus VA1 and VA2 RNA genes was used to co-transfect the COS cells to enhance transient protein expression by increasing translational initiation. The MC4-r and the VA½ cDNA plasmids were used at a ratio of 10 to 1. Control plates received the VA½ plasmid alone. 48 hours post-transfection, the cells were rinsed and culture supernatant containing 15 nm of AP-Ag was added. AP-Ag is a truncated agouti protein, containing the cysteine-rich domain tagged with the alkaline phosphatase at its N-terminal. Binding of AP-Ag to transfected cells proceeded at room temperature for 90 minutes with gentle rocking. The cells were then washed 7 times before fixing and color development using NBT/BCIP substrate.
To assess the affinity of the agouti protein for the MC1-R receptor, a Scatchard Analysis was performed on MC1-r transfected COS7 cells using culture supernatant containing up to 30 nM AP-Ag. The Kd has been estimated at 20-30 nM range.

[2] = molecular target: T2, Human melanocortin receptor 4 (hMC4-r) (Homo sapiens, UniProt P32245); assay: Intracellular cAMP level in 293/MC4-R stable clones with agouti protein; type: cell-based; details: 5 nM agouti protein; 293/MC4-R line relative to the parental 293 cell line
T2 construct: expressed in transfected cells
Protocol: Human melanocortin receptor 4 (hMC4-r) cDNA, under the control of the CMV promoter, was transfected into the 293 cell line, and stable clones were selected (293/MC4-R). The stable clones were tested for reduction in intracellular cAMP levels in the presence of 5 nM agouti protein.
When 5 nM agouti protein was added to the 293/MC4-R line, an 18% reduction of intracellular cAMP level, relative to the parental 293 cell line, was observed.

hMC1-r [3] = molecular target: T1, hMC1-r; assay: Direct binding of AP-Ag to hMC1-r transfected COS-7 cells (AP staining); details: 15 nm AP-Ag, room temperature, 90 minutes; transfection efficiency typically 12-16%
Protocol: as §1
(§2) N-terminal truncated agouti protein, containing only the cysteine-rich C-terminal domain, retains the antagonizing activity of the full-length agouti. […]
(§3) The transfection efficiency, as monitored by β-galactosidase reporter plasmid, typically was 12-16%. 10-13% of the MC1-r transfected and 3-4% of the MC4-r transfected COS7 cells bound the agouti protein as determined by AP staining. […]

hMC4-r = molecular target: T3, hMC4-r (Homo sapiens, UniProt P32245); assay: Direct binding of AP-Ag to hMC4-r transfected COS-7 cells (AP staining); details: 15 nm AP-Ag, room temperature, 90 minutes; transfection efficiency typically 12-16%
T3 construct: expressed in transfected cells; host or cells: COS-7 cells, transient (DEAE-Dextran), co-transfected with Adenovirus VA1/VA2 RNA plasmid
Protocol: as §1, §2, §3

T1 sequence (Q01726 whole entry): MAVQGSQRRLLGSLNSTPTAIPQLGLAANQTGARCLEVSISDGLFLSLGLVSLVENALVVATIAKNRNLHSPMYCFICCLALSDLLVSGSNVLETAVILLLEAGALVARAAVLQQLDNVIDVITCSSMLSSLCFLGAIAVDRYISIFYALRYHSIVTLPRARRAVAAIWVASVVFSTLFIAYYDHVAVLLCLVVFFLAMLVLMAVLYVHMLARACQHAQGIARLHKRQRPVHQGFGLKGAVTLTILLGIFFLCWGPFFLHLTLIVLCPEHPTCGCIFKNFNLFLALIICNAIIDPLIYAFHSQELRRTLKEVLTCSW
T3 sequence (P32245 whole entry): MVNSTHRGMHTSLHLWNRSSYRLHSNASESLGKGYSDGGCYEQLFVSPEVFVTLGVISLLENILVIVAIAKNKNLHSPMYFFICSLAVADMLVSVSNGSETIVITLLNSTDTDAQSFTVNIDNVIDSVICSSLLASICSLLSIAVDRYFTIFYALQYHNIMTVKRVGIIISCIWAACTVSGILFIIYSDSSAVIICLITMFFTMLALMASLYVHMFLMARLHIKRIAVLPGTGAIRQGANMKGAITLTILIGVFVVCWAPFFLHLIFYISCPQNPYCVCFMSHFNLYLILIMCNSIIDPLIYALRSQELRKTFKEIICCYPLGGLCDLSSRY
T2 sequence (P32245 whole entry): as above

Row | Molecule | Kd (hMC1-r [1]) | reduction of intracellular cAMP level [2] | MC1-r transfected COS7 cells that bound the agouti protein as determined by AP staining (hMC1-r [3]) | MC4-r transfected COS7 cells that bound the agouti protein as determined by AP staining (hMC4-r)
1 | AP-Ag: truncated agouti protein, containing the cysteine-rich domain tagged with the alkaline phosphatase at its N-terminal | 20 to 30 nM | – | – | –
2 | B1 | – | 18% | 10-13% | 3-4%
